Experimental data as given in PMC8136874, “The entry reaction of the plant shikimate pathway is subjected to highly complex metabolite-mediated regulation” (The Plant Cell, 2021).

Legend:
[1] = tested on: O=C[C@H](O)[C@H](O)COP(=O)(O)O; experiment: DHS enzymatic activity assay with recombinant AthDHS3; type: biochemical, Arabidopsis thaliana; details: other: various concentrations of the substrate; means ± SEM, n = 3; pH 7.4
Method: Unless otherwise noted, DHS enzymatic activity was monitored as previously described ([Liu et al., 2008]), with several optimizations for high-throughput assays with eight-strip PCR tubes and a thermal cycler. The enzyme solution (7.7 µL) containing 50 mM HEPES (pH 7.4) was preincubated with an effector molecule(s) at room temperature for 10 min. For assays using recombinant protein and enzyme fraction isolated from plant leaves, 0.01–0.05 µg and approximately 50 µg of proteins were used, respectively. After adding 0.5 µL of 0.1 M DTT, the samples were further incubated at room temperature for 15 min. […] The enzyme reaction was started by adding 6.8 µL of the substrate solution, then incubated at 37°C for 20 min, and terminated by adding 30 µL of 0.6 M trichloroacetic acid. After brief centrifugation, 5 µL of 200 mM NaIO4 (sodium meta-periodate) in 9 N H3PO4 was added to oxidize the enzymatic product and incubate at 25°C for 20 min. To stop the oxidation reaction, 20 µL of 0.75 M NaAsO2 (sodium arsenite), which was dissolved in 0.5 M Na2SO4 and 0.05 M H2SO4, was immediately mixed. After 5 min of incubation at room temperature, one-third of the sample solution was transferred to a new tube to be mixed with 50 µL of 40 mM thiobarbituric acid and incubated at 99°C for 15 min in a thermal cycler. Developed pink chromophore was extracted by putting the final solutions with 600 µL of cyclohexanone in eight-strip solvent-resistant plastic tubes, mixing vigorously and centrifuging them at 4,500 × g for 3 min to separate water- and cyclohexanone-based layers. The absorbance of the pink supernatant was read at 549 nm with the microplate reader (Infinite 200 PRO, TECAN, Männedorf, Switzerland) to calculate DAHP production with the molar extinction coefficient at 549 nm (ε = 549 nm) of 4.5 × 10^4/M/cm. […]
For determination of kinetic parameters, the data of enzymatic activities measured in the presence of various concentration of substrates were calculated with the Michaelis–Menten equation in Graphpad Prism 6 (GraphPad Software, San Diego, CA, USA).

C=C(OP(=O)(O)O)C(=O)O = experiment: purified protein, by the assay type; details: other: various concentrations of the substrate; means ± SEM, n = 3; pH 7.4

AthDHS3 (Arabidopsis thaliana), sequence (chain, as listed by the source): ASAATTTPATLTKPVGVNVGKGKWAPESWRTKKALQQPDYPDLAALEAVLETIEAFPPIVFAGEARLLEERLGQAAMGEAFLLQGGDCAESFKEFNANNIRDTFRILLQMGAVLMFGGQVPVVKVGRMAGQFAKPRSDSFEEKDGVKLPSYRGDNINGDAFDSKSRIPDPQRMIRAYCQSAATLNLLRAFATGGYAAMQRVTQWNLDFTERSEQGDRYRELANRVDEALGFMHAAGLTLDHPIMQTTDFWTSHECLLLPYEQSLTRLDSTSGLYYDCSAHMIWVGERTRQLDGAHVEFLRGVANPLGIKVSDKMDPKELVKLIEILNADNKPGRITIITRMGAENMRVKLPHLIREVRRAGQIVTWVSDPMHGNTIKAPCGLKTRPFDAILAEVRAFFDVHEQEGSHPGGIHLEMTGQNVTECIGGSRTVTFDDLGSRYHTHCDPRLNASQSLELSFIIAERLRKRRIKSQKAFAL

With AthDHS3 (Arabidopsis thaliana) the Km [1] was 1550 ± 276 µM, the kcat [1] was 9.13 ± 0.28 s⁻¹ and the kcat/Km [1] was 6350 ± 160 M⁻¹ s⁻¹. It also gave a Km (C=C(OP(=O)(O)O)C(=O)O) of 706 ± 124 µM, a kcat (C=C(OP(=O)(O)O)C(=O)O) of 8.42 s⁻¹ and a kcat/Km (C=C(OP(=O)(O)O)C(=O)O) of 12400 M⁻¹ s⁻¹.
